Test results reported in article PMC4198130.

How the values were obtained:
[1] = biological target: GST fusion of the VGLUT1 C-terminus, ΔWW/PAXY (rat); assay: pull-down; GST fusions of the VGLUT1 C-terminus on glutathione sepharose beads, incubated with detergent-solubilized (2% TX-100) rat brain extract, RT 60 min; bound proteins by immunoblot, band intensity normalised to VG1 (Figs. 3C,D and 4B)
[2] = biological target: GST fusion of the VGLUT1 C-terminus, ΔSH3/1,2,3 (rat); assay: as above
[3] = biological target: GST fusion of the VGLUT1 C-terminus lacking the second PP domain (rat); assay: as above
[4] = biological target: GST fusion of the VGLUT1 C-terminus, ΔWW/PAXA (rat); assay: as above
[5] = biological target: GST fusion of the VGLUT1 C-terminus lacking the first PP domain (rat); assay: as above
[6] = biological target: GST fusion of the VGLUT1 C-terminus lacking both PP domains (rat); assay: as above
[7] = biological target: GST fusion of the SH3 domain of sorting nexin 9 (Panomics) (human) (UniProt Q9Y5X1); assay: pull-down; GST fusions of SH3 or WW domains on glutathione sepharose beads, incubated with detergent-solubilized (2% TX-100) rat brain extract, RT 60 min; bound VGLUT1 by immunoblot, band intensity normalised to lysate
[8] = biological target: GST fusion of the VGLUT1 C-terminus, SS/AA (rat) (UniProt Q62634); assay: pull-down; 400 µg GST fusions of the VGLUT1 C-terminus on glutathione sepharose beads, rat brain extract in 100 mM Tris-HCl pH 7.5, 150 mM NaCl, 1 mM EGTA, 1% TX-100, 4°C 2 h; immunoblot (Fig. 6)
[9] = biological target: GST fusion of the VGLUT1 C-terminus, SS/DD (rat) (UniProt Q62634); assay: as above
[10] = biological target: GST fusion of the VGLUT1 C-terminus lacking the second PP domain (rat); assay: pull-down; GST fusions of the VGLUT1 C-terminus on glutathione sepharose beads, incubated with extracts of COS7 cells transfected with myc-Lyn (2% TX-100); detected with antibody to myc, band intensity normalised to VG1
[11] = biological target: GST fusion of the VGLUT1 C-terminus lacking both PP domains (rat); assay: as above
[12] = biological target: GST fusion of the VGLUT1 C-terminus lacking the first PP domain (rat); assay: as above

Chain of myc-tagged Lyn (P25911 whole entry): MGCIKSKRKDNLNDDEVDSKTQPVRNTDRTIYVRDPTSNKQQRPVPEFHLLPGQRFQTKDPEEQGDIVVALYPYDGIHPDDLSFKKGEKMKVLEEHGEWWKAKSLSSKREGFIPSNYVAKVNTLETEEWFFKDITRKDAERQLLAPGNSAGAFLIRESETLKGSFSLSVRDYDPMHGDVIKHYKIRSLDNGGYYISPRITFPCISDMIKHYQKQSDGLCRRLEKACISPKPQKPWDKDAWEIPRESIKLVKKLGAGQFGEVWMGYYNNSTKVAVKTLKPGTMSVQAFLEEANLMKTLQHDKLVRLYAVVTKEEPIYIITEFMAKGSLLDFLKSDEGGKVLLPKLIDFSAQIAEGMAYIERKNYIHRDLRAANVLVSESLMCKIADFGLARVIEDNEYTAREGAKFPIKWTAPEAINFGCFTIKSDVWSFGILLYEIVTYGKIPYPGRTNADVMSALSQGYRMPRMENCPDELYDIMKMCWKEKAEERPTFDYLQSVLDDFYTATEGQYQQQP
Chain of Nedd4 from rat brain extract (Q62940 whole entry): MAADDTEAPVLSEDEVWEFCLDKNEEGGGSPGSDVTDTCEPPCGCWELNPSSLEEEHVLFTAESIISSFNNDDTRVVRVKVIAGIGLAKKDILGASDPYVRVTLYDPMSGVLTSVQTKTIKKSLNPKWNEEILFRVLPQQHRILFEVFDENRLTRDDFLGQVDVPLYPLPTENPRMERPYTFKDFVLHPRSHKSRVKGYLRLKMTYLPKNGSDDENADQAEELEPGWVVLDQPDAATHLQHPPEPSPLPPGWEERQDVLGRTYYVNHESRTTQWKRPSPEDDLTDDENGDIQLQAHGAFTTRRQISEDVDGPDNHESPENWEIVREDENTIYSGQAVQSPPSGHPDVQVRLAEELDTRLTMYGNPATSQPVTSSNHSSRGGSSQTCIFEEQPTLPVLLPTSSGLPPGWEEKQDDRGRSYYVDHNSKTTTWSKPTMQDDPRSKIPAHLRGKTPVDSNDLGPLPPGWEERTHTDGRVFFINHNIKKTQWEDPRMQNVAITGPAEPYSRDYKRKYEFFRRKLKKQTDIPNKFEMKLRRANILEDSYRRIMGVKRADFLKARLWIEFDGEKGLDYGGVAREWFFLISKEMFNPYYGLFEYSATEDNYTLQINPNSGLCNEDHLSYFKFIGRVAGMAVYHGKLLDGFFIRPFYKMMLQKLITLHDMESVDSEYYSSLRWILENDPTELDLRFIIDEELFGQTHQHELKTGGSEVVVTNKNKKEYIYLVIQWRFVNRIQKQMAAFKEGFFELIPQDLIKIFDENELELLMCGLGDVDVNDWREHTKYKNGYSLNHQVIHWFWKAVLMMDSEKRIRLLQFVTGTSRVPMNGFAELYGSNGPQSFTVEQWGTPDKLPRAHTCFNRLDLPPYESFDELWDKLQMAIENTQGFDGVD
Chain of clathrin adaptor protein AP-2 from rat brain extract (P18484 whole entry, looked up): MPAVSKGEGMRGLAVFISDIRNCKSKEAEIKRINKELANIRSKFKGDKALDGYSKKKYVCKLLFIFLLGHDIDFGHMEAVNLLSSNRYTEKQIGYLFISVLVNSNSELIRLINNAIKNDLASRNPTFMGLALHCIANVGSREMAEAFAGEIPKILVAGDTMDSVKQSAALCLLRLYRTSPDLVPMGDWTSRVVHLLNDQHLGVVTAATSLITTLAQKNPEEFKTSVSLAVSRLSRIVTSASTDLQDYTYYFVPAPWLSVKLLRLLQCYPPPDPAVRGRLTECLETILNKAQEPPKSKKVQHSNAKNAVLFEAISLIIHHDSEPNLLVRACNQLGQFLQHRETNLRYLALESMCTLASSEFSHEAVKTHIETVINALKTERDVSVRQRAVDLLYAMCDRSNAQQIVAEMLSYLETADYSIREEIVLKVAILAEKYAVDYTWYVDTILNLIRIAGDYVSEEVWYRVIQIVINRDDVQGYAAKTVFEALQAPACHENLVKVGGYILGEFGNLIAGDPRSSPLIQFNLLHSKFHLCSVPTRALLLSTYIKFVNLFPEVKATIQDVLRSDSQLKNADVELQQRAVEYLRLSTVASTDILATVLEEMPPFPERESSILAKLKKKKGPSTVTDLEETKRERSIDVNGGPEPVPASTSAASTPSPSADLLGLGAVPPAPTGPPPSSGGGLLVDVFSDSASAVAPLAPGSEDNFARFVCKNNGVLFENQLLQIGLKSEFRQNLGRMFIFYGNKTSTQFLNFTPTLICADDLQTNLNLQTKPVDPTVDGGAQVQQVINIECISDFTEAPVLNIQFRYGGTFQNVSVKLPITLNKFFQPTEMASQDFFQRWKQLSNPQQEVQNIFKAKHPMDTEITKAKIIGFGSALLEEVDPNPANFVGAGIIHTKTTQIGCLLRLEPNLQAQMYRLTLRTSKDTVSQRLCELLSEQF
Chain of GST fusion of the SH3 domain of sorting nexin 9 (Panomics) (human) (Q9Y5X1 1-62): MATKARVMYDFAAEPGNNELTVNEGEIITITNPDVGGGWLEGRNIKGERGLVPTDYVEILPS

Q: Which results are given for “Atrophin Interacting Protein AIP4/Itch from rat brain extract (enzyme)”?
A: band intensity normalised to VG1 [1]: 0.119 a.u.; band intensity normalised to VG1 [2]: 0.99 a.u.; band intensity normalised to VG1 [3]: 0.822 a.u.; band intensity normalised to VG1 [4]: 0.0669 a.u.

Q: For “Nck from rat brain extract (natural protein)”, which band intensity normalised to VG1 [5] is on record?
A: Its band intensity normalised to VG1 is 1.11 a.u.

Q: With “Nedd4 from rat brain extract (from UniProt Q62940 1-887) (enzyme)” as the substance, how does the band intensity normalised to VG1 [3] read?
A: Its band intensity normalised to VG1 is 0.664 a.u.

Q: And the band intensity normalised to VG1 [6]?
A: Its band intensity normalised to VG1 is 0.0821 a.u.

Q: What about the band intensity normalised to VG1 [5] of the same substance?
A: The band intensity normalised to VG1 was 0.0459 a.u.

Q: With “VGLUT1 from rat brain extract (from UniProt Q62634 1-560) (natural protein)” as the substance, how does the band intensity normalised to lysate [7] read?
A: The band intensity normalised to lysate was 0.111 a.u.

Q: Which band intensity (a.u.) [8] does the source give for “clathrin adaptor protein AP-2 from rat brain extract (from UniProt P18484 1-938) (complex)” here?
A: The band intensity (a.u.) was 0.674 a.u.

Q: What about the band intensity (a.u.) [9] of the same substance?
A: Its band intensity (a.u.) is 1.76 a.u.

Q: How did the band intensity normalised to VG1 [10] turn out when “myc-tagged Lyn (from UniProt P25911 1-512) (enzyme)” was run?
A: Its band intensity normalised to VG1 is 0.0282 a.u.

Q: What about the band intensity normalised to VG1 [11] of the same substance?
A: The band intensity normalised to VG1 was 0.0368 a.u.

Q: And the band intensity normalised to VG1 [12]?
A: Its band intensity normalised to VG1 is 1.12 a.u.

Q: Which results are given for “ponsin/c-Cbl interacting protein CAP from rat brain extract (from UniProt P84109 1-35) (natural protein)”?
A: band intensity normalised to VG1 [3]: 0.062 a.u.; band intensity normalised to VG1 [6]: 0.225 a.u.; band intensity normalised to VG1 [5]: 2.24 a.u.
